We go through 1 molecule from patent US20110293613A1 (Hoffmann-La Roche, published 2011).

Test [1] addresses T1, human Insulin-like growth factor I receptor (IGF-1R) on tumor cells (human, UniProt P08069 31-1367).
T1 construct: Endogenously expressed on the human tumor cell lines; also called IGF-IR; CD 221 antigen
Description: competitive FACS binding on A549 cells, competitor labeled <IGF-1R> HUMAB Clone 18, Exp. #2.

The target in test [2] is T1, human Insulin-like growth factor I …. Description: competitive FACS binding on A549 cells, competitor labeled <IGF-1R> HUMAB Clone 18, Exp. #1.
Test [3] has the same target. Kind of test: competitive FACS binding on TC-71 cells, competitor labeled <IGF-1R> HUMAB Clone 18, Exp. #1.
Test [4] has the same target. Kind of test: competitive FACS binding on TC-71 cells, competitor labeled <IGF-1R> HUMAB Clone 18, Exp. #2.

T1 sequence (P08069 31-1367 limits assumed): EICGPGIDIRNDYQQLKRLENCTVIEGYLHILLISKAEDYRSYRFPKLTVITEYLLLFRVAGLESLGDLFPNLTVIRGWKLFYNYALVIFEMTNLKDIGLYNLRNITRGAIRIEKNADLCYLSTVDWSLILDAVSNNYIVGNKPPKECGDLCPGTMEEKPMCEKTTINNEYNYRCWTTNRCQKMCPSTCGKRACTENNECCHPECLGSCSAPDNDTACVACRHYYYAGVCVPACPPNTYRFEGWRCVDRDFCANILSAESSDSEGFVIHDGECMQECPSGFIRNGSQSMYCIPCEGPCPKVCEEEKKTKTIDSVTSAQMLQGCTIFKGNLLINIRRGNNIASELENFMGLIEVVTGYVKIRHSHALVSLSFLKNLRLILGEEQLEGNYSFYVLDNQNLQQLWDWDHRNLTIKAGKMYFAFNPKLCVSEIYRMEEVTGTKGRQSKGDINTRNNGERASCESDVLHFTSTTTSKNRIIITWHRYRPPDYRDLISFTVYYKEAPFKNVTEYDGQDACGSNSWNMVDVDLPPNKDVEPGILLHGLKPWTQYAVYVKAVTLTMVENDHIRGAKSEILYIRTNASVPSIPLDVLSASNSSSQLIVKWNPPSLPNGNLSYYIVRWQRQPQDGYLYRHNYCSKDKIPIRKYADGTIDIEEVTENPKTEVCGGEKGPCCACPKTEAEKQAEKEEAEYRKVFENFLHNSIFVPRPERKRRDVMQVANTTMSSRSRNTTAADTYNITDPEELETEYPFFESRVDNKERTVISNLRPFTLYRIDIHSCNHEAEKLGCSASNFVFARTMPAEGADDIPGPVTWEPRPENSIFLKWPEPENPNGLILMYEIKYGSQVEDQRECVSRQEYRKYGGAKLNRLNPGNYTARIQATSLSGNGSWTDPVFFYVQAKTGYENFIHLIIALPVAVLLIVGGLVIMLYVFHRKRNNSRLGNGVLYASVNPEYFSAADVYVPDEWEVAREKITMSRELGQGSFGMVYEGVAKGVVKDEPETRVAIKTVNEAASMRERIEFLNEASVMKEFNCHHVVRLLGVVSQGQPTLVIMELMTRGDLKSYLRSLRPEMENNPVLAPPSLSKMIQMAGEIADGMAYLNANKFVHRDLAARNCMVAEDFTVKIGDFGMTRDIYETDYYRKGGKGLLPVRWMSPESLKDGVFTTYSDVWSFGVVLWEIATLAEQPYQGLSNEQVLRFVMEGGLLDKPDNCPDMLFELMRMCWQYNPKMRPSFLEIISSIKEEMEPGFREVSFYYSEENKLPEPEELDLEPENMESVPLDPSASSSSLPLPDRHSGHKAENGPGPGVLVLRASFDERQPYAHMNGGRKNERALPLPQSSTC

B1: human anti-IGF-1R antibody <IGF-1R> HUMAB Clone 18 (DSM ACC 2587) (antibody, V domains shown)
VH: QVELVESGGGVVQPGRSQRLSCAASGFTFSSYGMHWVRQAPGKGLEWVAIIWFDGSSTYYADSVRGRFTISRDNSKNTLYLQMNSLRAEDTAVYFCARELGRRYFDLWGRGTLVSVSS
VL: EIVLTQSPATLSLSPGERATLSCRASQSVSSYLAWYQQKPGQAPRLLIYDASKRATGIPARFSGSGSGTDFTLTISSLEPEDFAVYYCQQRSKWPPWTFGQGTKVESK
As for B1, the IC50 stood at 1.5 nM in test [1], 1.6 nM in test [2], 1.4 nM in test [3] and 1.5 nM in test [4].
